Results reported in patent publication US10344068B2, “Natriuretic polypeptides” (priority 2011, dated 2019).
Ends that are not written are not given here.

Assays:
Assay type in all cases: cell-based
[1] = target: T1, NPR-A (GC-A) (Homo sapiens, UniProt P16066); experiment: cGMP production in HEK 293 cells stably transfected to express NPR-A (GC-A); conditions: NPR-A+ HEK 293 cells; 10^-10 M, 10^-8 M or 10^-6 M for 10 minutes
T1 construct: expressed in transfected cells; host or cells: HEK 293
T1 sequence (P16066 33-1061): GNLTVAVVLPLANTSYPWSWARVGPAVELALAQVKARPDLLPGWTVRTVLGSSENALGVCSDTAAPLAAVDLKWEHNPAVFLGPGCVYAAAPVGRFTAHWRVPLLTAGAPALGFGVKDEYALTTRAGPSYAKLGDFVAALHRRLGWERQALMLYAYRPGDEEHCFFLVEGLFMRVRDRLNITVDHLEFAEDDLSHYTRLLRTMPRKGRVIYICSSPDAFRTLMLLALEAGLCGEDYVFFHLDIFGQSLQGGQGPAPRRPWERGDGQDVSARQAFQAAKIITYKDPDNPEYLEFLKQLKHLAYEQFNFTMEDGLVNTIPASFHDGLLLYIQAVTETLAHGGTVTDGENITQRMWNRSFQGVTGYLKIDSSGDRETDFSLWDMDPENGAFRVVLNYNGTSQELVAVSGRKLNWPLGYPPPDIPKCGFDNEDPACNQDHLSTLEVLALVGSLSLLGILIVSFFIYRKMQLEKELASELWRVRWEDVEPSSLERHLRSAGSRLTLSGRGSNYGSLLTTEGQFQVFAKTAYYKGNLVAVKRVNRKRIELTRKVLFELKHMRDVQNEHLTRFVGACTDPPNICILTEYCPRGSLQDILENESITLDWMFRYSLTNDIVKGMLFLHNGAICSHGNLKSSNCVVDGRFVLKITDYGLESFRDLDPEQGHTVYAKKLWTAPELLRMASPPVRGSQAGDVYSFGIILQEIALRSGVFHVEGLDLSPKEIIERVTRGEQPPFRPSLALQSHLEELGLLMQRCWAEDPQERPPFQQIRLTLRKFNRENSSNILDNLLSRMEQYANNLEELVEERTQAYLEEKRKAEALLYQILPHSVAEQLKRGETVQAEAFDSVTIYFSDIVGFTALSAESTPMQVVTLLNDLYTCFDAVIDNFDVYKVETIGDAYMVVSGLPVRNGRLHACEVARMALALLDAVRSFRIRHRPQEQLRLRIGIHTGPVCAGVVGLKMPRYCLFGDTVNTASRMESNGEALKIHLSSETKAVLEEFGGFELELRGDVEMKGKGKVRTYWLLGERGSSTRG
Experimental: (§1) HEK 293 cells were stably transfected to express either NPR-A (GC-A) or NPR-B (GC-B) using Lipofectamine (Invitrogen, Grand Island, N.Y.). Transfected cells were maintained in Dulbecco's modified Eagle's medium supplemented with 10% fetal bovine serum, 100 U/mL penicillin, 100 U/mL streptomycin, and 250 μg/mL G418. The reagents were obtained from Invitrogen (Grand Island, N.Y.).
(§2) The following was performed to carry out cell stimulation and cGMP assays. Cells were plated in 6-well plates and treated as described elsewhere (Tsuruda et al., Circulation Research, 91:1127-1134 (2002)). Briefly, cells were incubated in Hank's balanced salt solution (Invitrogen, Carlsbad, Calif.) containing 20 mmol/L N-[2-hydroxyethyl]piperazine-N′[2-ethanesulfonic acid], 0.1% bovine serum albumin, and 0.5 mmol/L 3-isobutyl-1-methylzanthine (Sigma, St. Louis, Mo.). Treated cells received 10^−10 M, 10^−8M, or 10^−6 M of either BNP-Ang1-7 or Ang1-7BNP for 10 minutes. Cells were lysed in 300 μL 6% TCA and sonicated for 10 minutes. The samples were ether extracted four times in 4 volumes of ether, dried, and reconstituted in 500 μL cGMP assay buffer. The samples were assayed using a competitive RIA cGMP kit (Perkin-Elmer, Boston, Mass.) as described elsewhere (Steiner et al., J. Biol. Chem., 247:1106-1113 (1972)). Samples were corrected for dilution factors and protein concentration, and values were expressed as pmol cGMP/well. There was no cross-reactivity with ANP, BNP, CNP, and Endothelin-1, and less than 0.001 percent cross-reactivity with cAMP, GMP, GDP, ATP, and GTP.

[2] = target: T2, NPR-B (GC-B) (Homo sapiens, UniProt P20594); experiment: cGMP production in HEK 293 cells stably transfected to express NPR-B (GC-B); conditions: NPR-B+ HEK 293 cells; 10^-10 M, 10^-8 M or 10^-6 M for 10 minutes
T2 construct: expressed in transfected cells; host or cells: HEK 293
T2 sequence (P20594 23-1047): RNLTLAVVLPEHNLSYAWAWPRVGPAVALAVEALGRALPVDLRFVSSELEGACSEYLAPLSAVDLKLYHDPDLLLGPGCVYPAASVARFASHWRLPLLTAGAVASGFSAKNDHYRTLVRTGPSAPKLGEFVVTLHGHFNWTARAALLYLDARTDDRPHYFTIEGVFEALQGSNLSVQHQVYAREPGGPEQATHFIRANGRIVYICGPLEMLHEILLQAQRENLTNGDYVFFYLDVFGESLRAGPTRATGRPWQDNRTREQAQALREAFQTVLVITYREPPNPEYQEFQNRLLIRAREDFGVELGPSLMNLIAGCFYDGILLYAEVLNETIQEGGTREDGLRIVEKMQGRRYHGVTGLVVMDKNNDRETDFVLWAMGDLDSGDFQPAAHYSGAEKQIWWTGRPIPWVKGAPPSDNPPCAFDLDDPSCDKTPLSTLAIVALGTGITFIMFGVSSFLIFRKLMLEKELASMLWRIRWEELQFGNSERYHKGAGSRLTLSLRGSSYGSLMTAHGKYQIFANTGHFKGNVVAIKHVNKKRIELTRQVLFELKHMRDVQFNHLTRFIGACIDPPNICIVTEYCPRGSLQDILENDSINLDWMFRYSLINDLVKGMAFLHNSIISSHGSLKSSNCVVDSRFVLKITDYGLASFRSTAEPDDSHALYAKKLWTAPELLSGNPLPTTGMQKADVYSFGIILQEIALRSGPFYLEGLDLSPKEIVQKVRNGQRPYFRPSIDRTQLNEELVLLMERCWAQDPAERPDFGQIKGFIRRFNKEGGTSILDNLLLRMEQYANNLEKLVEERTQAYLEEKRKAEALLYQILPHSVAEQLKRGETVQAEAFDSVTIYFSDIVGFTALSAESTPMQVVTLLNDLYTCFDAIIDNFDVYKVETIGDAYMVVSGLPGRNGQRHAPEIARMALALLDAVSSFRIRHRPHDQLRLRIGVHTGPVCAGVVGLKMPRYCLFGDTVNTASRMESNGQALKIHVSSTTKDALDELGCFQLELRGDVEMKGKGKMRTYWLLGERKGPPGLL
Experimental: as §1, §2

[3] = tested on: Human cardiac fibroblasts; experiment: cGMP production in human cardiac fibroblasts (competitive RIA cGMP kit); conditions: human cardiac fibroblasts (CFs); 10^-6 M, 10^-8 M or 10^-10 M of NP or cANG for 10 minutes
Experimental: cANG was custom-synthesized to have the sequence set forth in FIG. 4 and confirmed by high performance liquid chromatography and mass spectroscopy to have a molecular weight of 3080.6 Da. Human cardiac fibroblasts (CFs; ScienCell, San Diego, Calif.) were cultured in the manufacturer's fibroblast media (ScienCell, San Diego, Calif.) supplemented with fibroblast growth serum (FGS), fetal bovine serum (FBS), and Pen/Strep. Cells were treated at 80-90% confluency. Only cell passages 1 through 4 were used for experiments. To perform a cyclic GMP assay, the cells were treated as described previously (Huntley et al., J. Cell. Physiol., 209(3):943-9 (2006)). Briefly, cells were incubated in Hank's balanced salt solution (Invitrogen, Carlsbad, Calif.) containing 20 mmol/L N-[2-hydroxyethyl]piperazine-N′[2-ethanesulfonic acid], 0.1% bovine serum albumin, and 0.5 mmol/L 3-isobutyl-1-methylzanthine (Sigma, St. Louis, Mo.). Treated cells received 10^−6 M, 10^−8M, or 10^−10 M of NP or cANG for 10 minutes. Cells were lysed in 6% TCA and sonicated for 10 minutes. The samples were ether extracted four times in four volumes of ether, dried, and reconstituted in […] of cGMP assay buffer.
The samples were assayed using a competitive RIA cGMP kit (Perkin-Elmer, Boston, Mass.). Briefly, samples and standards were incubated with […] anti-human cGMP polyclonal antibody and I^125-antigen for 18 hours. Cyclic GMP assay buffer was added to the samples, and they were centrifuged for 20 minutes at 2500 rpm. The free fraction was aspirated off, and the bound fraction was counted and concentrations determined. Samples were corrected for dilution factors and protein concentration, and values were expressed as pmoles/mL.

Compound: B-type natriuretic peptide [BNP]
- cGMP production [1]: induced cGMP production
- cGMP production [2]: Minimal cGMP production
- cGMP production [3]: resulted in cGMP production

Compound: BNP-Ang1-7: chimeric polypeptide containing an N-terminus and ring structure of BNP and a C-terminal Ang-(1-7) (SPKMVQGSGCFGRKMDRISSSSGLGCDRVYIHP; not fully specified (bridges); cysteine pairing not given here)
- cGMP production [1]: induced cGMP production
- cGMP production [2]: Neither BNP-Ang1-7 nor Ang1-7BNP induced cGMP production

Compound: cANG: chimeric polypeptide containing an N-terminus and ring structure of CNP and a C-terminal Ang-(1-7) (GLSKGCFGLKLDRIGSMSGLGCDRVYIHP; not fully specified (bridges); cysteine pairing not given here)
- cGMP production [3]: resulted in cGMP production

Compound: CC[C@H](C)[C@@H]1NC(=O)[C@H](CCCNC(=N)N)NC(=O)[C@H](CC(=O)O)NC(=O)[C@H](CCSC)NC(=O)[C@H](CCCNC(=N)N)NC(=O)CNC(=O)CNC(=O)[C@H](Cc2ccccc2)NC(=O)[C@@H](NC(=O)[C@H](CO)NC(=O)[C@H](CO)NC(=O)[C@H](CCCNC(=N)N)NC(=O)[C@H](CCCNC(=N)N)NC(=O)[C@H](CC(C)C)NC(=O)[C@@H](N)CO)CSSC[C@@H](C(=O)N[C@@H](CC(N)=O)C(=O)N[C@@H](CO)C(=O)N[C@@H](Cc2ccccc2)C(=O)N[C@@H](CCCNC(=N)N)C(=O)N[C@@H](Cc2ccc(O)cc2)C(=O)O)NC(=O)CNC(=O)[C@H](CC(C)C)NC(=O)CNC(=O)[C@H](CO)NC(=O)[C@H](CCC(N)=O)NC(=O)[C@H](C)NC(=O)CNC1=O [ANP, atrial natriuretic peptide]
- cGMP production [3]: resulted in cGMP production

Compound: angiotensin-(1-7) [Ang1-7]
- cGMP production [1]: did not induce cGMP production
- cGMP production [2]: did not induce cGMP production

Compound: Ang1-7BNP: chimeric polypeptide containing an N-terminal Ang-(1-7) and a ring structure and C-terminus of BNP
- cGMP production [1]: induced cGMP production
- cGMP production [2]: Neither BNP-Ang1-7 nor Ang1-7BNP induced cGMP production

Compound: C-type natriuretic peptide (GLSKGCFGLKLDRIGSMSGLGC) [CNP]
- cGMP production [3]: resulted in cGMP production
